Measured values taken from patent publication CN112063765A (BEIJING XINSONG BIOLOGICAL TECH CO LTD, dated 2020).

Legend:
Assay in all cases: cell-based or functional assay
[1] = biological target: Solomon Islands/3/2006(H1N1) (Influenza A virus Solomon …)
[2] = biological target: A/swine/Jalisco/12-13/2012(H1N1) (Influenza A virus …)
[3] = biological target: New Caledonia/20/99(H1N1) (Influenza A virus New Caledonia/20/99 …)

B1: 3E6单克隆抗体 (antibody, V domains shown)
VH: EVQLEESGTELARPGASVKLALKASGYIFSSYSGQWIKQRPGAGLELIGYPYPGWIDTRYTQKLTGKATLTADKSSSTLYMQLSSLASEDSAVAYCAGSYFSSDAWGLGTTLAVSS
VL: DIVLTQSPALMAASAGEKVTITCAVSQSIQSGYLAWYQQKSGISPKPWIYDTSNQAGGVPARFSGAGSGTSYSLTITSMEAEDAATYYCAQGTTSPLSFGAGTKLELK
中和活性 (Lenti-pseudovirus, 293A细胞, β-gal; 抗体浓度 0.01μg/mL) [1]: 0.843
中和活性 (Lenti-pseudovirus, 293A细胞, β-gal; 抗体浓度 0.01μg/mL) [2]: 0.974
中和活性 (Lenti-pseudovirus, 293A细胞, β-gal; 抗体浓度 0.01μg/mL) [3]: 0.865
